According to patent publication US11866736B2, “Protein prostheses for mitochondrial diseases or conditions” (The General Hospital Corporation, priority 2015, dated 2024):

Tests used:
HeLa Tet3G cells [1] = assay: Cell proliferation assays: rescue of the proliferation defect induced by respiratory chain inhibitors (nuclei counting); type: cell-based, human; conditions: for rescue of piericidin induced proliferation defect by supplementation: HeLa Tet3G Luciferase cells, compound added to medium, 3 days
Method: Five hundred HeLa Tet3G NDI1, Luciferase, LbNOX or mitoLbNOX cells were seeded in 200 μl of DMEM (DMEM (US Biological, D9800), 3.7 g/L NaHCO3, 10% dialyzed FBS (Life Technologies, 26400-044)) per well in a black 96-well plate with clear bottom (Corning, 3904). Twenty four hours after seeding, media was exchanged to DMEM without pyruvate (DMEM (US Biological, D9802), 15.9 mg/L phenol red, 3.7 g/L NaHCO3, 10% dialyzed FBS (Life Technologies, 26400-044))±10 μg/ml chloramphenicol±30 ng/ml ethidium bromide±1 mM pyruvate±300 ng/ml doxycycline. After 0, 2, 3, 4, 5 and 6 days, media was aspirated and cells were fixed by adding 100 μl of 4% paraformaldehyde in PBS and incubating at room temperature for at least 30 min. Paraformaldehyde solution was aspirated and cells were stained with 200 μl of 1 μg/ml Hoechst 33345 in PBS. Plates were covered with sealing aluminum foil and stored at 4° C. before counting cells in each well with Molecular Dynamics IMAGEXPRESS® Ultra (see “Nuclei counting using Molecular Devices IMAGEXPRESS® Ultra,” below).
One thousand HeLa Tet3G NDI1, Luciferase, LbNOX or mitoLbNOX cells were seeded in 200 μl of DMEM (DMEM (US Biological, D9800), 3.7 g/L NaHCO3, 10% dialyzed FBS (Life Technologies, 26400-044)) per well in a black 96-well plate with clear bottom (Corning, 3904). Twenty four hours after seeding, 10 μl of 6 μg/ml doxycycline (300 ng/ml final concentration) or water was added to each well. Twenty four hours after addition of doxycycline, media was exchanged to DMEM without pyruvate (DMEM (US Biological, D9802), 15.9 mg/L phenol red, 3.7 g/L NaHCO3, 10% dialyzed FBS (Life Technologies, 26400-044)), ±1 μM piericidin, ±1 μM antimycin, ±1 mM pyruvate and ±300 ng/ml doxycycline. After 0, 1, 2, 3 and 4 days, media was aspirated and cells were fixed by adding 100 μl of 4% paraformaldehyde in PBS and incubating at room temperature for at least 30 min. Paraformaldehyde solution was aspirated and cells were stained with 200 μl of 1 μg/ml Hoechst 33345. Plates were covered with sealing aluminum foil and stored at 4° C. before counting cells in each well with Molecular Dynamics IMAGEXPRESS® Ultra (see “Nuclei counting using Molecular Devices IMAGEXPRESS® Ultra,” below).
Two thousand HeLa Tet3G Luciferase cells were seeded in 200 μl of DMEM (DMEM (US Biological, D9800), 3.7 g/L NaHCO3, 10% dialyzed FBS (Life Technologies, 26400-044)) per well in a black 96-well plate with clear bottom (Corning, 3904). Twenty four hours after seeding, media was exchanged to DMEM without pyruvate (DMEM (US Biological, D9802), 15.9 mg/L phenol red, 3.7 g/L NaHCO3, 10% dialyzed FBS (Life Technologies, 26400-044))±1 μM piericidin, ±indicated concentrations of pyruvate, lactate, malate, oxaloacetate, nicotinamide mononucleotide ([…]) or PJ34. After 3 days, media was aspirated and cells were fixed by adding 100 μl of 4% paraformaldehyde in PBS and incubating at room temperature for at least 30 min. Paraformaldehyde solution was aspirated and cells were stained with 200 μl of 1 μg/ml Hoechst 33345. Plates were covered with sealing aluminum foil and stored at 4° C. before counting cells in each well with Molecular Dynamics IMAGEXPRESS® Ultra (see “Nuclei counting using Molecular Devices IMAGEXPRESS® Ultra,” below).
Images of 96-well plates with fixed cells stained with Hoechst 33345 were collected using Molecular Devices IMAGEXPRESS® Micro XLS. Four images were taken to cover the whole well. Images were analyzed and nuclei number per well was counted using CellProfiler 2.0 image analysis software (Carpenter, et al., Genome Biol., 7:R100, 2006; and Kamentsky, et al., Bioinformatics, 27:1179, 2011). […]

HeLa Tet3G cells [2] = assay: Glucose concentration-dependent cell survival; type: cell-based, human; conditions: 1 μM piericidin, 24 hours
Method: Images of 96-well plates with fixed cells stained with Hoechst 33345 were collected using Molecular Devices IMAGEXPRESS® Micro XLS. Four images were taken to cover the whole well. Images were analyzed and nuclei number per well was counted using CellProfiler 2.0 image analysis software (Carpenter, et al., Genome Biol., 7:R100, 2006; and Kamentsky, et al., Bioinformatics, 27:1179, 2011).
Ten thousand HeLa Tet3G NDI1, Luciferase, LbNOX or mitoLbNOX cells were seeded in 200 μl of DMEM (DMEM (US Biological, D9800), 3.7 g/L NaHCO3, 10% dialyzed FBS (Life Technologies, 26400-044)) per well of a black 96-well plate with clear bottom (Corning, 3904). Twenty four hours after seeding, 10 μl of 6 μg/ml doxycycline (300 ng/ml final concentration) or water was added to each well. Twenty four hours after addition of doxycycline, media was exchanged to DMEM (DMEM (US Biological, D9800), 3.7 g/L NaHCO3, 10% dialyzed FBS (Life Technologies, 26400-044))±300 ng/ml doxycycline. […] After 24 hours, media was aspirated and cells were fixed by adding 100 μl of 4% paraformaldehyde in PBS and incubating at room temperature for at least 30 min. Paraformaldehyde solution was aspirated and cells were stained with 200 μl of 1 μg/ml Hoechst 33345. Plates were covered with sealing aluminum foil and stored at 4° C. before counting cells in each well with Molecular Dynamics IMAGEXPRESS® Ultra (see “Nuclei counting using Molecular Devices IMAGEXPRESS® Ultra,” above).

CC(O)C(=O)O (stereo not drawn) [lactate, reference compound]
rescue of piericidin induced proliferation defect by supplementation (HeLa Tet3G cells [1]; 1 μM piericidin): do not

CN(C)CC(=O)Nc1ccc2[nH]c(=O)c3ccccc3c2c1 [PJ34, reference compound]
rescue of piericidin induced proliferation defect by supplementation (HeLa Tet3G cells [1]; 1 μM piericidin): did not rescue

O=C(O)CC(O)C(=O)O (stereo not drawn) [malate, reference compound]
rescue of piericidin induced proliferation defect by supplementation (HeLa Tet3G cells [1]; 1 μM piericidin): do not

NC(=O)c1ccc[n+]([C@@H]2O[C@H](COP(=O)([O-])O)[C@@H](O)[C@H]2O)c1 [PMN, nicotinamide mononucleotide, reference compound]
rescue of piericidin induced proliferation defect by supplementation (HeLa Tet3G cells [1]; 1 μM piericidin): did not rescue

B1: Ndi1: yeast (S. cerevisiae) NADH dehydrogenase Ndi1 protein, positive control (protein, UniProt P32340 27-513, looked up)
Rotenone-insensitive …: STGVENSGAGPTSFKTMKVIDPQHSDKPNVLILGSGWGAISFLKHIDTKKYNVSIISPRSYFLFTPLLPSAPVGTVDEKSIIEPIVNFALKKKGNVTYYEAEATSINPDRNTVTIKSLSAVSQLYQPENHLGLHQAEPAEIKYDYLISAVGAEPNTFGIPGVTDYGHFLKEIPNSLEIRRTFAANLEKANLLPKGDPERRRLLSIVVVGGGPTGVEAAGELQDYVHQDLRKFLPALAEEVQIHLVEALPIVLNMFEKKLSSYAQSHLENTSIKVHLRTAVAKVEEKQLLAKTKHEDGKITEETIPYGTLIWATGNKARPVITDLFKKIPEQNSSKRGLAVNDFLQVKGSNNIFAIGDNAFAGLPPTAQVAHQEAEYLAKNFDKMAQIPNFQKNLSSRKDKIDLLFEENNFKPFKYNDLGALAYLGSERAIATIRSGKRTFYTGGGLMTFYLWRILYLSMILSARSRLKVFFDWIKLAFFKRDFFKGL
rescue of proliferation defect caused by ethidium bromide (HeLa Tet3G cells [1]; 30 ng/ml ethidium bromide, no pyruvate, doxycycline-inducible expression): not
rescue of proliferation defect caused by antimycin (HeLa Tet3G cells [1]; 1 μM antimycin, no pyruvate, doxycycline-inducible expression): not
rescue of proliferation defect caused by piericidin (HeLa Tet3G cells [1]; 1 μM piericidin, no pyruvate, doxycycline-inducible expression): rescued
rescue of proliferation defect caused by chloramphenicol (HeLa Tet3G cells [1]; 10 μg/ml chloramphenicol, no pyruvate, doxycycline-inducible expression): not
effect on decrease in cell number (cell survival) at low glucose concentrations in the presence of piericidin (HeLa Tet3G cells [2]): rescued
